Data on one molecule can be found in patent publication US6509447B1, “G protein chimeras and methods of screening compounds” (Glaxo Welcome Inc., priority 1997, dated 2003).

Assay [1] has as its target T1, somatostatin SST2 receptor (Homo sapiens, UniProt P30874).
T1 construct: expressed in transfected cells; host or cells: Saccharomyces cerevisiae strains MMY9 and MMY11, plasmid pFL61-SST2, PGK1 promoter
Put plainly: Reverse halo assay for FUS1-HIS3 expression, MMY9 cells, SST2. The format is cell-based. The note with it: MMY9 cells with pRS314-GPA1 and SST2 receptor, 3 nmol somatostatin-14. On the procedure:
(§1) Assay for FUS1-HIS3 Expression. Reverse halo assays were carried out by growing MMY9 cells to early stationary phase (OD600≈4) in liquid SC-glucose (2%) medium lacking tryptophan and uracil. A uniform layer of cells (5×10^7) was plated to 22.5 cm by 22.5 cm bioassay dishes (Nunc) in 100 ml SC-glucose agar (1%) equilibrated to 50° C. This medium lacked tryptophan, uracil and histidine, and was supplemented with 10 mM 3-aminotriazole, and buffered to pH 7.0 with 0.1M sodium phosphate. Antibiotic discs were placed on the solidified agar, and a volume of agonist solution (1-5 μl) was applied to each disc. Plates were incubated at 30° C. for 3 days.
(§2) The four receptors were: the melatonin ML1B receptor, the serotonin 5HT1A receptor, the somatostatin SST2 receptor and the purinergic nucleotide receptor, P2Y2. […] Activation of the pheromone response pathway was monitored with two integrated reporter genes: […] allowing a growth readout in medium lacking histidine, and FUS1-lacZ allowing a β-galactosidase readout. […] Agonist-dependent activation of FUS1-HIS3 was determined by reverse halo assay in which agonists were applied to the filter discs in the arrangement shown in panel A, in quantities as follows: 3 nmol of somatostatin-14 (S-14); 40 nmol of melatonin (Mel); 3 nmol of α-factor; 100 nmol of UTP; 40 nmol of serotonin (5-HT). […]

The next assay addresses T2, serotonin 5HT1A receptor (Homo sapiens, UniProt P08908).
T2 construct: expressed in transfected cells; host or cells: Saccharomyces cerevisiae strains MMY9 and MMY11, plasmid pDT-PGK-5-HT1A
T2 sequence (P08908 1-422): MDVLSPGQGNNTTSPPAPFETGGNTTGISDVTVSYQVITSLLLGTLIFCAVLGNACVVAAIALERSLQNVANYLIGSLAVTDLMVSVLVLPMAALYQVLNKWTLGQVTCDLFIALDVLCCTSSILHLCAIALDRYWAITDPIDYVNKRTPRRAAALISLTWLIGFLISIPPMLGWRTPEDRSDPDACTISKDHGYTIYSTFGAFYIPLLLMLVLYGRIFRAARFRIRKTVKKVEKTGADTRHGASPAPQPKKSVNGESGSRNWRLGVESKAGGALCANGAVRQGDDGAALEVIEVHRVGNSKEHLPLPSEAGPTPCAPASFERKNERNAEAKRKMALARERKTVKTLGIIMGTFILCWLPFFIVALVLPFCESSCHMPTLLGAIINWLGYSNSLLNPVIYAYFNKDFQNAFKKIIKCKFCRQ
Put plainly: Reverse halo assay for FUS1-HIS3 expression, MMY9 cells, 5-HT1A. It is filed as cell-based. The note with it: MMY9 cells with pRS314-GPA1 and 5-HT1A receptor, 40 nmol serotonin. On the procedure:
as §1, §2

Assay [2] has as its system pheromone response pathway. Put plainly: Chemiluminescent β-galactosidase assay of FUS1-LacZ in MMY9 cells. It is filed as cell-based, Saccharomyces cerevisiae. The conditions noted are these: GPA1 promoter, mean ±SD, n≧5. On the procedure:
Assays for FUS1-IacZ Expression. β-galactosidase activities in cell extracts were measured with two assays. In the first assay (ONPG assay), cell extracts were incubated with the substrate ONPG as described by (37). Units were defined as (A420×1000)/(OD600x×t×v) (25). In the chemiluminescent assay, cells were grown to late logarithmic phase and diluted to 0.02 OD600 in 100 μl SC-WH medium in the presence or absence of 1 μM α-factor in 96-well microtitre plates. After incubation (30° C.; 6 hours), 20 μl of cells were removed and mixed with 20 μl assay mix (125 mM sodium phosphate pH 7.6, 15 mM MgSO4, 200 μM Galacton-Star β-galactosidase substrate (Tropix), 10% (v/v) Sapphire II (Tropix), 1 U/μl oxalyticase (Enzogenetics)). After incubation (30° C.; 1 hr) chemiluminescence was determined in a Top-count scintillation counter (Packard).
A Gpa1/Gαs chimera has been reported to couple the growth hormone releasing hormone receptor (12) when expressed from the strong constitutive promoter of the yeast phosphoglycerate kinase (PGK1) gene. We constructed Gpa1/Gαs and Gpa1/Gαq chimeras similar to those described above (FIG. 5b) and expressed them in MMY9 cells from the promoter of the GPA1 gene. We assayed FUS1-LacZ activity in these cells using a chemiluminescent assay, rather than the ONPG assay described above. […]

T1 sequence (P30874 whole entry): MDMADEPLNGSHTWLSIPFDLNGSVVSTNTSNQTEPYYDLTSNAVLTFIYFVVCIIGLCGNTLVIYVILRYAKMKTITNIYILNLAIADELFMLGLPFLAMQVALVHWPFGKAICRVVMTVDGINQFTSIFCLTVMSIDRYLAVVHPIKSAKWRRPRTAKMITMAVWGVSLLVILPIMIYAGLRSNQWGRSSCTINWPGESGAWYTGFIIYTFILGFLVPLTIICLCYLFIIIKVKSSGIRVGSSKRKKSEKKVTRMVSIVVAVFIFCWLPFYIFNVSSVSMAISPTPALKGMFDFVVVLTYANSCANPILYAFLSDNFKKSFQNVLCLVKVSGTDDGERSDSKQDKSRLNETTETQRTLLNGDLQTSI

B1: Gpa1p: endogenous yeast Gα subunit, product of the GPA1 gene (protein, UniProt P08539 2-472, looked up)
Guanine nucleotide-binding …: GCTVSTQTIGDESDPFLQNKRANDVIEQSLQLEKQRDKNEIKLLLLGAGESGKSTVLKQLKLLHQGGFSHQERLQYAQVIWADAIQSMKILIIQARKLGIQLDCDDPINNKDLFACKRILLKAKALDYINASVAGGSDFLNDYVLKYSERYETRRRVQSTGRAKAAFDEDGNISNVKSDTDRDAETVTQNEDADRNNSSRINLQDICKDLNQEGDDQMFVRKTSREIQGQNRRNLIHEDIAKAIKQLWNNDKGIKQCFARSNEFQLEGSAAYYFDNIEKFASPNYVCTDEDILKGRIKTTGITETEFNIGSSKFKVLDAGGQRSERKKWIHCFEGITAVLFVLAMSEYDQMLFEDERVNRMHESIMLFDTLLNSKWFKDTPFILFLNKIDLFEEKVKSMPIRKYFPDYQGRVGDAEAGLKYFEKIFLSLNKTNKPIYVKRTCATDTQTMKFVLSAVTDLIIQQNLKKIGII
For the molecule B1, the “agonist-dependent activation of FUS1-HIS3 (halo of cell growth)” value in assay [1] is listed as “responded to somatostatin”. The “agonist-dependent activation of FUS1-HIS3 (halo of cell growth)” value with serotonin 5HT1A receptor is listed as “did not activate FUS1-HIS3 in response to the agonist serotonin”. In assay [2], the “FUS1-LacZ Activity, 1 μM α-factor” value is given as 27.2 ± 1.7 light units (×10^6 cps) and the “FUS1-LacZ Activity, No α-factor” value was 0.73 ± 0.25 light units (×10^6 cps).
